The target of experiment [1] is wild-type griffithsin (GRFT) (red algae) (UniProt P84801). Description: AUC.
Experiment [2] addresses monomeric gp120 derived from HIV-1/JR-FL (HIV-1 (JR-FL)). In words: SPR.
Experiment [3] has as its target recombinant gp120 from HIV-1(ADA) strain (HIV-1 (ADA)). Description: SPR.
The target of experiment [4] is recombinant gp120 from HIV-1(IIIB) strain, glycosylated (HIV-1 (IIIB)) (UniProt P04578). Description: SPR.
The target in experiment [5] is recombinant gp41 protein from HIV-1(HxB2) (HIV-1 (HxB2)) (UniProt P04578). Description: SPR.
In experiment [6] the target is trimeric gp140 derived from HIV-1/JR-FL (HIV-1 (JR-FL)). Description: SPR.
A further experiment concerns the target GRFT D112A (red algae) (UniProt P84801). Description: AUC.
The target in experiment [7] is recombinant gp120 from HIV-1(ADA) strain (HIV-1 (ADA)). Description: ELISA. Background: An ELISA detects its analyte on a solid surface through an enzyme-linked reagent.
The target of the next experiment is GRFT D30A (red algae) (UniProt P84801). In words: AUC.

The text below walks through data of PMC3474606.

In general, stoichiometry N refers to a count of units in the complex or per binding partner. By Kd is commonly meant the constant that tells how readily two partners part at equilibrium. On to “wild-type griffithsin (GRFT) (from UniProt P84801 1-121) (natural protein)”, for which the stoichiometry N in [1] came to 2. The Kd in experiment [2] turned out to be 111 pM; in experiment [3] it was 73.2 pM; in experiment [4], 72.7 pM; in experiment [5], 44.9 pM; in experiment [6], 152 pM.

In the case of “GRFT D112A (from UniProt P84801 1-121) (natural protein)”, the stoichiometry N with GRFT D112A (red algae) was 2. For the same substance, in experiment [7], the fold reduction in binding against wild-type GRFT was found to be 10 fold. Besides, the Kd in [3] was 122 pM; in experiment [4], 142 pM; in experiment [5] it was 131 pM.

Consider “GRFT D30A (from UniProt P84801 1-121) (natural protein)”, for which the stoichiometry N in the experiment with GRFT D30A (red algae) was determined as 2. For the same substance, the fold reduction in binding against wild-type GRFT in [7] amounted to 10 fold. Also, the values for the Kd in experiment [3] and in experiment [4] were 123 pM and 156 pM, respectively.

Take “GRFT D70A (from UniProt P84801 1-121) (natural protein)”: the fold reduction in binding against wild-type GRFT in experiment [7] is 10 fold. The dissociation constant (Kd) in [3] was determined as 194 pM; in experiment [4], 245 pM; in experiment [5] it was 165 pM.
